Experimental findings from publication doi:10.1101/2025.06.17.660173, “Twinfilin is a potent uncapper of actin capping protein and modulates actomyosin contractility in the C. elegans spermatheca” (bioRxiv, 2025) are described below.

The assay has as its target T1, biotinylated SNAP tagged C. elegans heterodimeric capping protein (CAP-1/CAP-2) (C. elegans, UniProt P34685 1-282; P34686 1-270, biotin on the SNAP tag (benzylguanine-biotin); the subunit that carries it is not stated | biotin on the SNAP tag (benzylguanine-biotin); the subunit that carries it is not stated).
T1 construct: CAP-1, a capping protein subunit of C. elegans; CAP-2, a capping protein subunit of C. elegans; The complex was anchored to streptavidin-coated coverslips by the biotin; also called SNAP-CP; CP; source: E. coli BL21 DE3, purified (HisTrap, Superose 6), labelled with benzylguanine-biotin; not shown: His tag (from the HisTrap purification)
T1 sequence (looked up) 1: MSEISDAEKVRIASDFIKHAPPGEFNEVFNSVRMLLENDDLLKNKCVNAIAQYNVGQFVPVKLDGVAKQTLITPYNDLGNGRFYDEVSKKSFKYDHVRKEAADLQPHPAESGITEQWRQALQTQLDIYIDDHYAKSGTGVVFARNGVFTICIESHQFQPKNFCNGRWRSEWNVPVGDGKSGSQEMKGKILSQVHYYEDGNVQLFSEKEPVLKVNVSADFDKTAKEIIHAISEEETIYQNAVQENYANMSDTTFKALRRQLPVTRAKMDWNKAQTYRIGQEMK
T1 sequence (looked up) 2: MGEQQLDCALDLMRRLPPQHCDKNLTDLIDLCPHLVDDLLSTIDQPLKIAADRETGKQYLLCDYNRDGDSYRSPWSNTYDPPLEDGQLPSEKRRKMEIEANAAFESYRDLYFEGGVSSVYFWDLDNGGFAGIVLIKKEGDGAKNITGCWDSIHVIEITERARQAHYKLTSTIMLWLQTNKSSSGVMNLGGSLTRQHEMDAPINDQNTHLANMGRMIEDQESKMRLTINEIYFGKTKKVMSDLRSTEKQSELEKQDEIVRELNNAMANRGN
Put plainly: mf-TIRF microscopy uncapping assay; biotinylated SNAP-CP anchored to the coverslip; preformed Alexa-488-labelled (15%) ADP-actin filaments captured; filament detachment followed with and without TWF-2 in TIRF buffer (10 mM imidazole pH 7.4, 50 mM KCl, 1 mM MgCl2, 1 mM EGTA, 0.2 mM ATP, 10 mM DTT); survival fitted to a single exponential. The note with it: both partners purified.

A value given as a limit tells only on which side of the number the result lay.

B1: C. elegans TWF-2 (6×His-tagged), recombinant (natural protein, UniProt Q20173 1-333, looked up)
chain: MACQTGIRANAALRNALNLGKQAKLRLIKIVVNNEEMTPNYEFAGTANWRDDWRACLPDCVDAYEPCFILFRLNTITEWVLITFVDDRAPVREKMLLAATCATFKSEFGQCYIEHEKHVTDLKDLTLNAFEAWLKAKTELGPMSEVERELHNAQQERAAIAHAGPQHMKGVAFPVDRNAEEALRQLASQKLSFVQLSVDTLNEAIKLEGTLESLEPSQLASKVPRDKPRYTFYNFDHTWEGVPQQCTLFIYSLPSSGSSIKERMLYSSCKGPFLSAAQNQYGVVITNKMEVDARDDLSEKALLEVIHPLPVEAPKQFSRPAPPRAGPRRITKV
notes: TWF-2, the sole twinfilin ortholog of C. elegans; also called twinfilin; C. elegans twinfilin; source: E. coli BL21 (pRare), purified (Ni-NTA, Superdex 75 Increase)
For B1, the “fold acceleration of uncapping of CP from actin filaments” value was above 90 fold.
